Patent US6274134A, “Human cell adhesion protein AAMP-1 and uses thereof” (National Institutes of Health, priority 1993, dated 2001)

Assay: H3-heparin binding assay, recombinant AAMP blotted onto Immobilon-P
Conditions: tritiated heparin 2.5 U/mL
Experimental: Heparin binding assays utilizing competition of tritiated heparin (heparin sodium salt, [^3 H(G)]-, NEN DuPont), with unlabeled heparin, were performed for recombinant AAMP, solubilized P189 (immobilized on CovaLink™ plates), and for aggregated P189 in 0.1% BSA-DMEM solutions. Recombinant AAMP in bacterial lysate and bovine serum albumin in equal amounts were electrophoresed for gel purification, and blotted onto Immobilon-P™. These blots were incubated 3 hours with tritiated heparin, 2.5 U/mL (10.7 uCi/mL) at room temperature, alone and with increasing amounts of unlabeled heparin (0.125-0.25 U/mL) for competition. Following 3 washes, the bands of AAMP recombinant protein and BSA (triplicates for each heparin concentration) were cut from the blotted Immobilon P strips, placed in scintillation vials, and counted for comparisons. Solubilized P189 (6.25 ug/mL) was immobilized on CovaLink™ plates, as described previously, and incubated one hour at room temperature with tritiated heparin, […] (0.213 uCi/mL), alone and with increasing amounts of unlabeled heparin (50-500 U/mL) for competition. Following three washes, the plate wells, in duplicates or triplicates for each heparin concentration, were placed in scintillation vials and counted. In separate assays, aggregates of P189 (200 ug/mL in 0.1% BSA-DMEM) were incubated one hour on a rocker at room temperature with tritiated heparin (0.05 U/mL) alone and with increasing amounts of unlabeled heparin (0.05-5 U/mL) for competition. Following centrifugation,the precipitate was washed with 0.1% BSA-DMEM, centrifuged again, and then transferred to scintillation vials for counting. The background cpm/umole protein levels for assays with AAMP recombinant protein competed with unlabeled heparin, were standardized to AAMP recombinant protein's average background cpm/umole protein with no labeled heparin present.

B1: Recombinant AAMP: Recombinant human cell adhesion protein AAMP, gel purified from bacterial lysate (SEQ ID NO:7) (protein)
chain: GPEKWIRRLRRMESESESGAAADTPPLETLSFHGDEEIIEVVELDPGPPDPDDLAQEMEDVDFEEEEEEEGNEEGWVLEPQEGVVGSMEGPDDSEVTFALHSASVFCVSLDPKTNTLAVTGGEDDKAFVWRLSDGELLFECAGHKDSVTCAGFSHDSTLVATGDMSGLLKVWQVDTKEEVWSFEAGDLEWMEWHPRAPVLLAGTADGNTWMWKVPNGDCKTFQGPNCPATCGRVLPDGKRAVVGYEDGTIRIWDLKQGSPIHVLKGTEGHQGPLTCVAANQDGSLILTGSVDCQAKLVSATTGKVVGVFRPETVASQPSLGEGEESESNSVESLGFCSVMPLAAVGYLDGTLAIYDLATQTLRHQCQHQSGIVQLLWEAGTAVVYTCSLDGIVRLWDARTGRLLTDYRGHTAEILDFALSKDASLVVTTSGDHKAKVFCVQRPDR
In the case of B1, the “tritiated heparin binding, cpm above background per umole protein, with competition by equal amount of cold heparin” value (1:1 unlabeled heparin, 3 assays, S.D.) is reported as 2139 cpm/umole protein, the “tritiated heparin binding, cpm above background per umole protein, without competition” value (6 assays, S.D.) is reported as 9134+/-2699 cpm/umole protein and the “tritiated heparin binding, times more than background (BSA)” value (approx. 15 ug protein on Immobilon-P, 6 assays) is reported as 2.2+/-0.4 times.
